According to patent US20240199724A1 (THELPER, published 2024):
Values joined by “and” are separate entries in the source; they are usually repeats but may differ in a detail not shown here. Equal values may be shown once.

Tests used:
[1] = target: US28 of HCMV strain DB with C-terminal 6His tag, on CHO-US28-A1 cells (human cytomegalovirus (HCMV) strain DB) (UniProt P69332); assay: flow cytometry, secondary antibody alone on CHO-US28-A1 cells
[2] = target: Bio-Peptide-2 (human cytomegalovirus (HCMV), 4D variant); assay: ELISA (FIG. 5)
[3] = target: T1, US28 of HCMV strain DB with C-terminal 6His tag, on CHO-US28-A1 cells (human cytomegalovirus (HCMV) strain DB, UniProt P69332 1-354); assay: flow cytometry, 1:50 (w/v)
T1 chain: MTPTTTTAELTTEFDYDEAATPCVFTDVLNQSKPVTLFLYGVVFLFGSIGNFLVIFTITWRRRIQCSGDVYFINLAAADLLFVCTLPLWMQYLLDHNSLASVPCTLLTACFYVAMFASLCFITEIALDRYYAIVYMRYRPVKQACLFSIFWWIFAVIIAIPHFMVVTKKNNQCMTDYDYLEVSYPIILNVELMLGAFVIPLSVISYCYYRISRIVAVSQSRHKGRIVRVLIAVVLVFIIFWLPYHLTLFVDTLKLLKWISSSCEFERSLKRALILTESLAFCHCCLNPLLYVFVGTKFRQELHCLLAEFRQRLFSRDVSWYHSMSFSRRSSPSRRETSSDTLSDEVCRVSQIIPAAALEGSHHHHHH

[4] = target: T2, US28 of HCMV strain TB40/E with C-terminal 6His tag, on CHO cells (human cytomegalovirus (HCMV) strain …, UniProt P69332 1-354); assay: flow cytometry, CHO cells expressing DB or TB40/E US28 (FIG. 21D)
T2 construct: also called TB40/E form of US28
T2 chain: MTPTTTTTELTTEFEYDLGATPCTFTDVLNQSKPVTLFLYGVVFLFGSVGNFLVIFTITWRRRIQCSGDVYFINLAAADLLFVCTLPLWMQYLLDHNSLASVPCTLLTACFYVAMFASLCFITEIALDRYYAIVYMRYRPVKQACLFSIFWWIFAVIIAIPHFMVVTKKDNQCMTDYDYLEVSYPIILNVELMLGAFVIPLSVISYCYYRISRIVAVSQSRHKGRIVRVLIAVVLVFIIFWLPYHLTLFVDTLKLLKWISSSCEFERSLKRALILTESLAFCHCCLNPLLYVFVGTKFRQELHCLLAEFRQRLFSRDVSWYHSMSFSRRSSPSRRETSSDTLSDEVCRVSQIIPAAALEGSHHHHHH

[5] = target: T1, US28 of HCMV strain DB with C-terminal …; assay: flow cytometry, CHO cells expressing US28 of strain DB
[6] = target: T3, US28 of HCMV strain Ad169, on infected MRC-5 cells (human cytomegalovirus (HCMV) strain …, UniProt P69332 1-354)
T3 sequence: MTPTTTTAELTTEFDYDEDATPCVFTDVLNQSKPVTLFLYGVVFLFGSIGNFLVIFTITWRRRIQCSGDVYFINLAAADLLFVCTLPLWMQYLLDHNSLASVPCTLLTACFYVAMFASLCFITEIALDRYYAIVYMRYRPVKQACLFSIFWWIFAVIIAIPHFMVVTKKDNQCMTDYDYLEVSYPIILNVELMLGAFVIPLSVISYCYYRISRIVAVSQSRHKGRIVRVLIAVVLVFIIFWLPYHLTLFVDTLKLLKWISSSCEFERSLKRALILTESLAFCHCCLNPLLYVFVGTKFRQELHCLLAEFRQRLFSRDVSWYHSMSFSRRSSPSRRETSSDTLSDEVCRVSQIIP

[7] = target: T4, mutated US28 (artificially created mutated strain) with C-terminal 6His tag, on CHO cells (human cytomegalovirus (HCMV), …, UniProt P69332 1-354); assay: flow cytometry, CHO cells expressing the mutated US28
T4 construct: also called CHO-mutated strain; mutated form of US28
T4 chain: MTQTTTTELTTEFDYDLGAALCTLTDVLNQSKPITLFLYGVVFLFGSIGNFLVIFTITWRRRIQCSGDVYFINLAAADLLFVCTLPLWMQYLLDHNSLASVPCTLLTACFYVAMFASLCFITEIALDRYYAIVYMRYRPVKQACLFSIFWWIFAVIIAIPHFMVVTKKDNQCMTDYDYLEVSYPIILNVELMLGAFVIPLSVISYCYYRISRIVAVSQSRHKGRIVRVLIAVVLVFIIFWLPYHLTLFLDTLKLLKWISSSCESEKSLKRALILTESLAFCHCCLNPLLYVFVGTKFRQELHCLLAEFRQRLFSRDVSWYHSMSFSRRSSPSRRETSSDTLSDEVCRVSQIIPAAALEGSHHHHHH

[8] = target: T1, US28 of HCMV strain DB with C-terminal …; assay: flow cytometry, CHO-US28 (DB) cells against control CHO cells, background subtracted
[9] = target: T2, US28 of HCMV strain TB40/E with …; assay: flow cytometry, CHO cells expressing DB or TB40/E US28 (FIG. 21C)
[10] = target: T1, US28 of HCMV strain DB with C-terminal …; assay: flow cytometry
[11] = target: T4, mutated US28 (artificially created …); assay: flow cytometry, CHO cells expressing the mutated US28 (FIG. 21B)
[12] = target: T2, US28 of HCMV strain TB40/E with …; assay: flow cytometry, CHO cells expressing US28 of strain TB40/E

Molecule: Goat anti-mouse IgG-Alexa 488 (antibody)
- percent of cells bound [1]: 1.63%

B1: US28-13-5G6-1D3 antibody (antibody)
heavy: EVKLVESGGGLVQPGGSLRLACATSGFTFTDYYMSWVRQPPGKALEWLGFIRSKANGYTTEYSASVKGRFTISRDNSQSILYLQMNTLRSEDSATYYCARDERRTAWLAYWGQGTLVTVSAAKTTPPSVYPLAPGSAAQTNSMVTLGCLVKGYFPEPVTVTWNSGSLSSGVHTFPAVLQSDLYTLSSSVTVPSSTWPSETVTCNVAHPASSTKVDKKIVPRDCGCKPCICTVPEVSSVFIFPPKPKDVLTITLTPKVTCVVVDISKDDPEVQFSWFVDDVEVHTAQTQPREEQFNSTFRSVSELPIMHQDWLNGKEFKCRVNSAAFPAPIEKTISKTKGRPKAPQVYTIPPPKEQMAKDKVSLTCMITDFFPEDITVEWQWNGQPAENYKNTQPIMDTDGSYFIYSKLNVQKSNWEAGNTFTCSVLHEGLHNHHTEKSLSHSPGK
light: DVLMTQTPLSLPVSLGDQASISCRSSQSIVHSNGNTYLDWYLQKPGQSPKLLIYKVSNRFSGVPDRFSGSGSGTDFTLKISRVEAEDLGVYYCFQGSHVPTWTFGGGTKLEIKRADAAPTVSIFPPSSEQLTSGGASVVCFLNNFYPKDINVKWKIDGSERQNGVLNSWTDQDSKDSTYSMSSTLTLTKDEYERHNSYTCEATHKTSTSPIVKSFNRNEC
- fold binding against BSA control [2]: 27 fold and 28 fold

B2: US28-13-5G6-1D3 antibody (antibody, V domains shown)
VH: EVKLVESGGGLVQPGGSLRLACATSGFTFTDYYMSWVRQPPGKALEWLGFIRSKANGYTTEYSASVKGRFTISRDNSQSILYLQMNTLRSEDSATYYCARDERRTAWLAYWGQGTLVTVSA
VL: DVLMTQTPLSLPVSLGDQASISCRSSQSIVHSNGNTYLDWYLQKPGQSPKLLIYKVSNRFSGVPDRFSGSGSGTDFTLKISRVEAEDLGVYYCFQGSHVPTWTFGGGTKLEIKR
notes: also called US28-13-5G6-1D3 Ab; US28-13-5G6-1D3 rAb
- fold binding against US28 negative CHO cells [3]: 15 fold
- percentage retention of binding activity between the DB and TB40/E forms of US28 [4]: ~100%
- percent of cells bound [5]: 16.6%
- fold binding against uninfected cells [6]: ~16 fold
- percent of cells bound [7]: 12.9%
- Binding specificity comparative to the specificity displayed by VUN100 [8]: 1.65 ratio
- % change in absolute level of binding between the DB and TB40/E forms of US28 [9]: < 10%
- fold binding against normal CHO cells [10]: > 21 fold
- fold binding against control CHO cells [11]: ~15 fold
- percent of cells bound [12]: 18.2%

B3: US28-14-4E4-1E8 antibody (antibody, mouse IgG1, kappa, V domains shown)
VH: EVKLVESGGDLVKPGGSLKLSCAASGFTFSSYAMSWVRQTPEKRLEWVASISSGGRTYYPDSVKGRFTISRDNARNILYLQMSSLRSEDTAIYYCARGGTRHSYGNGFDYWGQGTTLTVSS
VL: QIVLSQSPTIMSASPGEKVTMTCSASSSVSYMHWYQQKSGTSPKRWIYDSSKLASGVPARFSGSGSGTSYSLTISSMEAEDAATYYCQQWTSNPPITFGAGTKLELKR
- Binding specificity comparative to the specificity displayed by VUN100 [8]: 4.6 ratio

B4: US28-13-1H3-1A10 antibody (antibody, mouse IgG1, kappa, V domains shown)
VH: EVKLVESGGVLVKPGGSLKFSCAASGFTLSSHALSWVRQTPEKRLEWVASISSRGRTYYPDSVKGRFTVSRDNARNILYLQVSSLRSEDTAMYYCTRGGTHYSYGNGFDFWGQGTTLTVSS
VL: QIVLTQSPAIMSASPGEKVTMTCSVSSSVSYMHWYQQKSGTSPKRWIYDTSKLASGVPARFSGSGSGTSYSLTISTMEAEDAATYYCQQWSNNPPITFGAGTKLELKR
notes: also called 14-1H3-1A10; 14-IH3-IA10
- Binding specificity comparative to the specificity displayed by VUN100 [8]: 2.29 ratio

B5: US28-13-1C10-1C10 antibody (antibody, mouse IgG1, kappa, V domains shown)
VH: EVKLVESGGVLVKPGGSLKFSCAASGFTFSSHALSWVRQTPEKRLEWVASISSRGRTYYPDSVKGRFTVSRDNARNILYLQVSSLRSEDTAMYYCTRGGTHYSYGNGFDFWGQGTTLTVSS
VL: QIVLTQSPAIMSASPGEKVTMTCSVSSSVSYMHWYQQKSGTSPKRWIYDTSKLASGVPARFSGSGSGTSYSLTISTMEAEDAATYYCQQWSNNPPITFGAGTKLELKR
- Binding specificity comparative to the specificity displayed by VUN100 [8]: 1.74 ratio

B6: monovalent VUN100 (VHH)
VHH: EVQLVESGGGLVQPGGSLRLACAVSGPGLIFKFTGVAWYRRQVPGAKRGLVALITGDGATRYGDSVKGRFTVSRDIAAKRVYLEMNDLRSEDTAVYYCKTGEYWGQGTQVTVSS
notes: also called Mv VUN100; VUN100 Ab
- percentage retention of binding activity between the DB and TB40/E forms of US28 [4]: ≤ 60%
- percent of cells bound [5]: 6.91%
- binding result [7]: no binding (tested: 50 µg/ml)
- percent of cells bound [7]: 1.41%
- % change in absolute level of binding between the DB and TB40/E forms of US28 [9]: > 35%
- specificity (fold binding against control CHO cells) [11]: < 1 fold
- percent of cells bound [12]: 4.33%

B7: bivalent VUN100 (VHH)
chain: EVQLVESGGGLVQPGGSLRLACAVSGPGLIFKFTGVAWYRRQVPGAKRGLVALITGDGATRYGDSVKGRFTVSRDIAAKRVYLEMNDLRSEDTAVYYCKTGEYWGQGTQVTVSSGGGGSGGGGSGGGGSGGGGSGGGGSGGGGSEVQLVESGGGLVQPGGSLRLACAVSGPGLIFKFTGVAWYRRQVPGAKRGLVALITGDGATRYGDSVKGRFTVSRDIAAKRVYLEMNDLRSEDTAVYYCKTGEYWGQGTQVTVSS
notes: also called VUN100b; BvVUN100
- percentage retention of binding activity between the DB and TB40/E forms of US28 [4]: ≤ 60%
- percent of cells bound [5]: 9.24%
- percent of cells bound [7]: 2.58%
- % change in absolute level of binding between the DB and TB40/E forms of US28 [9]: > 40%
- fold binding against control CHO cells [11]: 2.43 fold
- percent of cells bound [12]: 5.2%
